Measured values published in the supplement of paper PMC12783771.
± gives the standard deviation of the averaged measurements.

B1: library; numbered along this chain (parent)
chain: MNIQIGELAKRTACPVVTIRFYEQEGLLPPPGRSRGNFRLYGEEHVERLQFIRHCRSLDMPLSDVRTLLSYRKRPDQDCGEVNMLLDEHIRQVESRIGALLELKHHLVELREACSGARPAQSCGILQGLSDCVCDTRGTTAHPSD

Assays:
[1] = variants of: B1; assay: sfGFP reporter fluorescence (15 h) (µM FITC); higher = higher leak; conditions: library round: Round 0; ligand: none
Outline: (§1)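 PCR-made linear PbrR templates (Echo-normalized to 5 nM) were expressed in BL21 Star (DE3) extract (PANOx-SP) with pPbrR-sfGFP reporter plasmid and 30 μg/mL GamS. Reactions were 1 μL, Echo-assembled, with 1 µM lead chloride, 30 µM zinc acetate or no metal, incubated 15 hr at 30 °C. Endpoint sfGFP fluorescence (485/528 nm, Synergy Neo2) was converted to µM FITC via standard curves in 50 mM sodium borate pH 8.5. Up to three biological replicates.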

[2] = variants of: B1; assay: sfGFP reporter fluorescence (15 h) (µM FITC); higher = stronger transcriptional activation; conditions: library round: Round 0
Outline: as §1

## MNIQIGELAKRTACPVVTIRFYEQEGLLPPPGRSRGNFRLYGEEHVERLQFIRHCRSLDMPLSDVRTLLSYRKRPDQDCGEVNMLLDEHIRQVESRIGALLELDHHLVELREACSGARPAQSCGILQGLSDCVCDTRGTTAHPSD [K104D]
[1]
  sfGFP reporter fluorescence: 0.0592 ± 0.006
[2]; ligand: 1 µM Pb
  sfGFP reporter fluorescence: 0.138 ± 0.046
[2]; ligand: 30 µM Zn
  sfGFP reporter fluorescence: 1.06 ± 0.18

## MNIQIGELAKRTACPVVTIRFYEQEGLLPPPGRSRGNFRLYGEEHVERLQFIRHCRSLDMPLSDVRTLLSYRKRPDQDCGEVNMLLDEHIRQVESRIGALLELAHHLVELREACSGARPAQSCGILQGLSDCVCDTRGTTAHPSD [K104A]
[1]
  sfGFP reporter fluorescence: 0.05974 ± 0.00052
[2]; ligand: 1 µM Pb
  sfGFP reporter fluorescence: 0.0759 ± 0.0021
[2]; ligand: 30 µM Zn
  sfGFP reporter fluorescence: 0.591 ± 0.037

## MNIQIGELAKRTACPVVTIRFYEQEGLLPPPGRSRGNFRLYGEEHVERLQFIRHCRSLDMPLSDVRTLLSYRKRPDQDCGEVNMLLDEHIRQVESRIGALLELFHHLVELREACSGARPAQSCGILQGLSDCVCDTRGTTAHPSD [K104F]
[1]
  sfGFP reporter fluorescence: 0.0581 ± 0.011
[2]; ligand: 1 µM Pb
  sfGFP reporter fluorescence: 0.117 ± 0.029
[2]; ligand: 30 µM Zn
  sfGFP reporter fluorescence: 0.889 ± 0.037

## MNIQIGELAKRTACPVVTIRFYEQEGLLPPPGRSRGNFRLYGEEHVERLQFIRHCRSLDMPLSDVRTLLSYRKRPDQDCGEVNMLLDEHIRQVESRIGALLELCHHLVELREACSGARPAQSCGILQGLSDCVCDTRGTTAHPSD [K104C]
[1]
  sfGFP reporter fluorescence: 0.0614 ± 0.0091
[2]; ligand: 1 µM Pb
  sfGFP reporter fluorescence: 0.133 ± 0.026
[2]; ligand: 30 µM Zn
  sfGFP reporter fluorescence: 1.32 ± 0.18

## MNIQIGELAKRTACPVVTIRFYEQEGLLPPPGRSRGNFRLYGEEHVERLQFIRHCRSLDMPLSDVRTLLSYRKRPDQDCGEVNMLLDEHIRQVESRIGALLELEHHLVELREACSGARPAQSCGILQGLSDCVCDTRGTTAHPSD [K104E]
[1]
  sfGFP reporter fluorescence: 0.0552 ± 0.0086
[2]; ligand: 1 µM Pb
  sfGFP reporter fluorescence: 0.0691 ± 0.015
[2]; ligand: 30 µM Zn
  sfGFP reporter fluorescence: 0.635 ± 0.12

## MNIQIGELAKRTACPVVTIRFYEQEGLLPPPGRSRGNFRLYGEEHVERLQFIRHCRSLDMPLSDVRTLLSYRKRPDQDCGEVNMLLDEHIRQVESRIGALAELKHHLVELREACSGARPAQSCGILQGLSDCVCDTRGTTAHPSD [L101A]
[1]
  sfGFP reporter fluorescence: 0.0632 ± 0.0013
[2]; ligand: 1 µM Pb
  sfGFP reporter fluorescence: 0.0746 ± 0.0013
[2]; ligand: 30 µM Zn
  sfGFP reporter fluorescence: 0.555 ± 0.17

## MNIQIGELAKRTACPVVTIRFYEQEGLLPPPGRSRGNFRLYGEEHVERLQFIRHCRSLDMPLSDVRTLLSYRKRPDQDCGEVNMLLDEHIRQVESRIAALLELKHHLVELREACSGARPAQSCGILQGLSDCVCDTRGTTAHPSD [G98A]
[1]
  sfGFP reporter fluorescence: 0.0614 ± 0.00078
[2]; ligand: 1 µM Pb
  sfGFP reporter fluorescence: 0.0762 ± 0.0021
[2]; ligand: 30 µM Zn
  sfGFP reporter fluorescence: 0.793 ± 0.06

## MNIQIGELAKRTACPVVTIRFYEQEGLLPPPGRSRGNFRLYGEEHVERLQFIRHCRSLDMPLSDVRTLLSYRKRPDQDCGEVNMLLDEHIRQVESRIGAALELKHHLVELREACSGARPAQSCGILQGLSDCVCDTRGTTAHPSD [L100A]
[1]
  sfGFP reporter fluorescence: 0.0803 ± 0.0015
[2]; ligand: 1 µM Pb
  sfGFP reporter fluorescence: 0.131 ± 0.0044
[2]; ligand: 30 µM Zn
  sfGFP reporter fluorescence: 0.663 ± 0.2

## MNIQIGELAKRTACPVVTIRFYEQEGLLPPPGRSRGNFRLYGEEHVERLQFIRHCRSLDMPLSDVRTLLSYRKRPDQDCGEVNMLLDEHIRQVESRWGALLELKHHLVELREACSGARPAQSCGILQGLSDCVCDTRGTTAHPSD [I97W]
[1]
  sfGFP reporter fluorescence: 0.0585 ± 0.006
[2]; ligand: 1 µM Pb
  sfGFP reporter fluorescence: 0.0616 ± 0.0015
[2]; ligand: 30 µM Zn
  sfGFP reporter fluorescence: 0.176 ± 0.0073

## MNIQIGELAKRTACPVVTIRFYEQEGLLPPPGRSRGNFRLYGEEHVERLQFIRHCRSLDMPLSDVRTLLSYRKRPDQDCGEVNMLLDEHIRQVESRVGALLELKHHLVELREACSGARPAQSCGILQGLSDCVCDTRGTTAHPSD [I97V]
[1]
  sfGFP reporter fluorescence: 0.0563 ± 0.0023
[2]; ligand: 1 µM Pb
  sfGFP reporter fluorescence: 0.0605 ± 0.0026
[2]; ligand: 30 µM Zn
  sfGFP reporter fluorescence: 0.338 ± 0.015

## MNIQIGELAKRTACPVVTIRFYEQEGLLPPPGRSRGNFRLYGEEHVERLQFIRHCRSLDMPLSDVRTLLSYRKRPDQDCGEVNMLLDEHIRQVESRYGALLELKHHLVELREACSGARPAQSCGILQGLSDCVCDTRGTTAHPSD [I97Y]
[1]
  sfGFP reporter fluorescence: 0.0603 ± 0.0034
[2]; ligand: 1 µM Pb
  sfGFP reporter fluorescence: 0.0825 ± 0.0026
[2]; ligand: 30 µM Zn
  sfGFP reporter fluorescence: 0.721 ± 0.031

## MNIQIGELAKRTACPVVTIRFYEQEGLLPPPGRSRGNFRLYGEEHVERLQFIRHCRSLDMPLSDVRTLLSYRKRPDQDCGEVNMLLDEHIRQVESRTGALLELKHHLVELREACSGARPAQSCGILQGLSDCVCDTRGTTAHPSD [I97T]
[1]
  sfGFP reporter fluorescence: 0.0579 ± 0.0042
[2]; ligand: 1 µM Pb
  sfGFP reporter fluorescence: 0.0662 ± 0.0034
[2]; ligand: 30 µM Zn
  sfGFP reporter fluorescence: 0.579 ± 0.0096

## MNIQIGELAKRTACPVVTIRFYEQEGLLPPPGRSRGNFRLYGEEHVERLQFIRHCRSLDMPLSDVRTLLSYRKRPDQDCGEVNMLLDEHIRQVESRIGALLEAKHHLVELREACSGARPAQSCGILQGLSDCVCDTRGTTAHPSD [L103A]
[1]
  sfGFP reporter fluorescence: 0.0629 ± 0.0013
[2]; ligand: 1 µM Pb
  sfGFP reporter fluorescence: 0.06945 ± 0.00026
[2]; ligand: 30 µM Zn
  sfGFP reporter fluorescence: 0.918 ± 0.037

## MNIQIGELAKRTACPVVTIRFYEQEGLLPPPGRSRGNFRLYGEEHVERLQFIRHCRSLDMPLSDVRTLLSYRKRPDQDCGEVNMLLDEHIRQVESRIGALLALKHHLVELREACSGARPAQSCGILQGLSDCVCDTRGTTAHPSD [E102A]
[1]
  sfGFP reporter fluorescence: 0.0735 ± 0.0018
[2]; ligand: 1 µM Pb
  sfGFP reporter fluorescence: 0.0771 ± 0.0029
[2]; ligand: 30 µM Zn
  sfGFP reporter fluorescence: 0.302 ± 0.057
